For 16 molecules, FACS fluorescence results are on record in patent US20250333501A1 (University of California, published 2025).

T1: CLDN6 endogenously expressed by human cancer cell lines (ARK2, OVCA429) (human, UniProt P56747 1-220)
T1 construct: Untagged endogenous protein; also called Endogenous CLDN6+
T1 sequence: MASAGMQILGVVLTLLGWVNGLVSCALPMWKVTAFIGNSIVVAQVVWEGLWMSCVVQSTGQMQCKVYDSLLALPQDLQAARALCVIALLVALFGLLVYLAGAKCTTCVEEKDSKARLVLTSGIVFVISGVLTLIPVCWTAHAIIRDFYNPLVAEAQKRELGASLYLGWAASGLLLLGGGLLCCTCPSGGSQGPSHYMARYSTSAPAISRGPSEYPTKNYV

T2: human CLDN6 fused to GFP, expressed on engineered HEK293T cells (HEK293T-CLDN6-mGFP) (human, UniProt P56747 1-220)
T2 construct: It calls residues 1-21 a signal peptide; also called Claudin-6; HEK293T-CLDN6-mGFP Artificial CLDN6+; not shown: mGFP tag
T2 sequence: T1 sequence

B1: AB18-3 (antibody, V domains shown)
VH: QVQLVQSGAEVKKPGASVKVSCKASGYSFTGYNMNWVRQAPGQGLEWMGNIDPYYGGSTYAQKFQGRVTMTVDTSTSTVYMELSSLRSEDTAVYYCARERSGYVFSAMDYWGQGTLVTVSS
VL: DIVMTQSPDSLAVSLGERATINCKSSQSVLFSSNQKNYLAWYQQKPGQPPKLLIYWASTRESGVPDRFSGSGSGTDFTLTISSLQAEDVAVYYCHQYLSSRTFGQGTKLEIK
notes: Humanized; also called Humanized AB 18-3
B2: AB18-5 (antibody, V domains shown)
VH: B1 VH with V20I, M48I, V68A, M70L, V79A
VL: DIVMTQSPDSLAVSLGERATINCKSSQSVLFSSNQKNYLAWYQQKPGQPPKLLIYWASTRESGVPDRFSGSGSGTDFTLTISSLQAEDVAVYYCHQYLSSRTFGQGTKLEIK
notes: also called Humanized AB 18-5
B3: AB18-4 (antibody, V domains shown)
VH: B1 VH
VL: DIVMTQSPDSLAVSLGERVTMNCKSSQSVLFSSNQKNYLAWYQQKPGQPPKLLIYWASTRESGVPDRFSGSGSGTDFTLTISSVQAEDVAVYYCHQYLSSRTFGQGTKLEIK
notes: also called Humanized AB 18-4
B4: AB18-6 (antibody, V domains shown)
VH: B1 VH with V20I, M48I, V68A, M70L, V79A
VL: B3 VL
notes: also called Humanized AB 18-6
B5: AB9-3 (antibody, V domains shown)
VH: QVQLVQSGAEVKKPGASVKMSCKASGYRFTDYNMHWVRQAPGQGLEWIGYINPNNGGTNYAQKFQGRATLTVDTSTSTAYMELSSLRSEDTAVYYCARDYLYFFDCWGQGTLLTVSS
VL: DIQMTQSPSSLSASVGDRVTITCLASQTIGTWLAWYQQKPGKAPKLLIYAAASLADGVPSRFSGSGSGTDFTFTISSLQPEDFVTYYCQQLYSIPRTFGQGTKLEIK
notes: also called Humanized AB 9-3
B6: AB9-4 (antibody, V domains shown)
VH: B5 VH
VL: B5 VL with L24R
notes: also called Humanized AB 9-4
B7: AB9-chim (antibody, V domains shown)
VH: EVQLQQSGPELVKPGASVKMSCKASGYRFTDYNMHWVKQSHGKSLEWIGYINPNNGGTNYNQNFKGKATLTVNKSSSTAYMELRSLTSEDSAAYYCARDYLYFFDCWGQGTTLTVSS
VL: DIQMTQSPASQSASLGESVTITCLASQTIGTWLAWYQQKPGKSPQLLIYAAASLADGVPSRFSGSGSGTRFSFKISSLQAEDFVSYYCQQLYSIPRTFGGGTKLEIK
notes: 'chim' is the pre-humanized form (parental variable regions); also called pre-humanized (chimeric) form of AB9
B8: AB11-2 (antibody, V domains shown)
VH: EVQLVESGGGLVQPGGSLRLSCAASGFTFSSFGMHWVRQAPGKGLEWVAYISSDSRTIYYADSVKGRFTISRDNAKNSLYLQMNSLRAEDTAVYYCARDYGRTYEAYWGQGTLVTVSS
VL: DIVMTQSPDSLAVSLGERATINCRASKSVSTSGYSYIHWYQQKPGQPPKLLIYLASNLESGVPDRFSGSGSGTDFTLTISSLQAEDVAVYYCQHSRELPLTFGQGTKLEIK
notes: also called Humanized AB 11-2
B9: AB4-4 (antibody, V domains shown)
VH: QVQLVQSGAEVKKPGASVKMSCKASGYTFTSYTMHWIRQAPGQGLEWIGYINPSSTYTHYAQKFQGRATLTADTSTSTAYMELSSLRSEDTAVYYCSRGELGGFAYWGQGTLVTVSS
VL: DVVMTQSPLSLPVTLGQPASISCRSSQSLVHSDGNTYLNWYQQRPGQSPRLLIYKVSNRFSGVPDRFSGSGSGTDFTLKISRVEAEDVGVYYCSQSTHVPYTFGQGTKLEIK
notes: also called Humanized AB 4-4
B10: AB4-5 (antibody, V domains shown)
VH: B9 VH with L45Q
VL: B9 VL
notes: also called Humanized AB 4-5
B11: AB4-3 (antibody, V domains shown)
VH: B9 VH with M20V, I37V, I48M, A68V, L70M, A79V
VL: B9 VL
notes: also called Humanized AB 4-3
B12: AB3-2 (antibody, V domains shown)
VH: EVQLLESGGGLVQPGGSMRLSCAASGFTFSNYWMNWVRQAPGKGLEWVAQIRLKSDNYATHYADSVKGRFTISRDDSKNTVYLQMNSLRAEDTGVYYCNDGPPSGCWGQGTLLTVSS
VL: DIQMTQSPSSLSASVGDRVTITCRISENIYSYLAWYQQKPGKAPKLLIYNAKILVEGVPSRFSGSGSGTDFTLTISSLQPEDFATYYCQHHYTVPWTFGQGTKLEIK
notes: also called Humanized AB 3-2
B13: AB3-5 (antibody, V domains shown)
VH: B12 VH with C106Y
VL: B12 VL with I48V, A84G
notes: also called Humanized AB 3-5
B14: AB3-4 (antibody, V domains shown)
VH: B12 VH with C106Y
VL: B12 VL
notes: also called Humanized AB 3-4
B15: AB11-chim (antibody, V domains shown)
VH: DVQLVESGGGLVQPRGSRKLSCAASGFTFSSFGMHWVRQAPEKGLEWVAYISSDSRTIYYADTVKGRFTISRDNPTNTLFLQMTSLRSEDTAMYYCARDYGRTYEAYWGQGTLVTVSA
VL: DIVLTQSPASLAVSLGQRATISCRASKSVSTSGYSYIHWYQQKPGQPPKLLIYLASNLESGVPARFSGSGSGTDFTLNIHPVEEEDAATYYCQHSRELPLTFGAGTKLELK
notes: 'chim' is the pre-humanized form (parental variable regions); also called pre-humanized (chimeric) form of AB11
B16: AB18-chim (antibody, V domains shown)
VH: QVQLKQSGPELEKPGASVKISCKASGYSFTGYNMNWVKQSNGKSLEWIGNIDPYYGGSTYNQKFTGKATLTVDKSSSTAYMQLKSLTSEDSAVYYCARERSGYVFSAMDYWGQGTSVTVSS
VL: NIMMTQSPSSLAVSAGEKVTMSCKSSQSVLFSSNQKNYLAWYQQKPGQSPRLLIYWASTRESGVPDRFTGSGSGTDFTLTISNVQAEDLAVYYCHQYLSSRTFGAGTKLELK
notes: 'chim' is the pre-humanized form (parental variable regions); also called pre-humanized (chimeric) form of AB18

Substitutions are numbered along the chain they refer to.

One test addresses T1, CLDN6 endogenously expressed by human …. Kind of test: FACS, 0.3 µg Ab, ARK2 cells. As for the experimental part: (§1) FACS assays were also carried out to determine relative antigen binding strengths of the humanized antibodies (at either 1.5 μg or 0.3 μg) for binding to CLDN6 as expressed by the indicated cancer cell lines. 2nd Ab only was used as a negative control.
On to B1, for which the FACS fluorescence was found to be 1080.

As to B2, the FACS fluorescence was 1310.

In turn, B3 yielded an FACS fluorescence of 1130.

In turn, B4 returned an FACS fluorescence of 1390.

Turning to B5, the FACS fluorescence turned out to be 1140.

On to B6, for which the FACS fluorescence came out at 1120.

For B7, the FACS fluorescence amounted to 3510.

For B8, the FACS fluorescence was determined as 1400.

The molecule B9 registered an FACS fluorescence of 1050.

On to B10, for which the FACS fluorescence was 967.

As for B11, the FACS fluorescence was 1190.

On to B12, for which the FACS fluorescence worked out at 14700.

Molecule B13 displayed an FACS fluorescence of 1280.

On to B14, for which the FACS fluorescence was determined as 1320.

Regarding B15, the FACS fluorescence stood at 1320.

On to B16, for which the FACS fluorescence stood at 3440.

A further test has the same target. Briefly: FACS, 1.5 µg Ab, ARK2 cells. Here is the method:
as §1
Consider B1, for which the FACS fluorescence turned out to be 1210.

B2 showed an FACS fluorescence of 1330.

B3 registered an FACS fluorescence of 1380.

Consider B4, for which the FACS fluorescence came out at 1940.

In turn, B5 registered an FACS fluorescence of 1470.

Molecule B6 came in with an FACS fluorescence of 1550.

In turn, B7 displayed an FACS fluorescence of 4490.

B8 had an FACS fluorescence of 1940.

In turn, B9 registered an FACS fluorescence of 1400.

As for B10, the FACS fluorescence amounted to 1200.

Take B11: the FACS fluorescence stood at 1520.

In turn, B12 displayed an FACS fluorescence of 33600.

Regarding B13, the FACS fluorescence was 2910.

B14: the FACS fluorescence was found to be 1460.

The molecule B15 came in with an FACS fluorescence of 1260.

In the case of B16, the FACS fluorescence came out at 9150.

A further test has the same target. Kind of test: FACS, 1.5 µg Ab, OVCA429 cells. In general terms: A flow cytometer gives signals particle by particle.
B1: the FACS fluorescence worked out at 2700.

The molecule B2 displayed an FACS fluorescence of 4270.

Turning to B3, the FACS fluorescence was 3220.

With B4, the FACS fluorescence worked out at 6750.

In turn, B5 returned an FACS fluorescence of 1260.

In turn, B6 had an FACS fluorescence of 1110.

The molecule B7 came in with an FACS fluorescence of 3570.

In the case of B8, the FACS fluorescence amounted to 2690.

On to B9, for which the FACS fluorescence is 1200.

The molecule B10 showed an FACS fluorescence of 1350.

The molecule B11 came in with an FACS fluorescence of 1160.

Turning to B12, the FACS fluorescence is 85900.

For the molecule B13, the FACS fluorescence is 2950.

In the case of B14, the FACS fluorescence worked out at 2960.

Molecule B15 came in with an FACS fluorescence of 2440.

B16 returned an FACS fluorescence of 25500.

The target in the next test is T2, human CLDN6 fused to GFP, expressed on …. Briefly: FACS, 0.3 µg Ab, 293T clone with human CLDN6. The method in brief: (§2)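 Humanized antibodies were tested by flow cytometry, essentially as in the source's direct-binding protocol, on engineered 293T clones expressing human CLDN6. Each antibody was used at 0.3 µg or 1.5 µg. In that protocol, EDTA-detached cells were incubated with Alexa Fluor 647 NHS ester-labelled antibody for 30 min on ice in the dark, washed and read on a BD Accuri C6 in channel FL4H. Fluorescence gives relative antigen binding strength.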
B1 registered an FACS fluorescence of 30400.

For the molecule B2, the FACS fluorescence is 29400.

In the case of B3, the FACS fluorescence amounted to 32400.

As to B4, the FACS fluorescence is 26900.

The molecule B5 returned an FACS fluorescence of 9500.

B6 displayed an FACS fluorescence of 15300.

On to B7, for which the FACS fluorescence is 46700.

Turning to B8, the FACS fluorescence worked out at 1290.

B9 showed an FACS fluorescence of 14100.

As for B10, the FACS fluorescence stood at 16800.

For B11, the FACS fluorescence was 14300.

Turning to B12, the FACS fluorescence is 309000.

The molecule B13 registered an FACS fluorescence of 13300.

Consider B14, for which the FACS fluorescence amounted to 11600.

The molecule B15 returned an FACS fluorescence of 1670.

B16 displayed an FACS fluorescence of 73800.

For the next test the target is unchanged. Kind of test: FACS, 1.5 µg Ab, 293T clone with human CLDN6. The method in brief: as §2
As for B1, the FACS fluorescence stood at 58900.

For B2, the FACS fluorescence amounted to 51900.

On to B3, for which the FACS fluorescence worked out at 54400.

B4 registered an FACS fluorescence of 58500.

B5 had an FACS fluorescence of 24600.

B6 yielded an FACS fluorescence of 34300.

Turning to B7, the FACS fluorescence was 72000.

Take B8: the FACS fluorescence is 2560.

The molecule B9 came in with an FACS fluorescence of 49000.

The molecule B10 gave an FACS fluorescence of 43400.

With B11, the FACS fluorescence was found to be 47800.

The molecule B12 displayed an FACS fluorescence of 396000.

The molecule B13 showed an FACS fluorescence of 48600.

Regarding B14, the FACS fluorescence came to 55800.

Regarding B15, the FACS fluorescence came out at 3490.

As to B16, the FACS fluorescence was 135000.
